# Measurements taken from the nanobody polyreactivity screen of Harvey et al. (2022).
# Assay: yeast display, Sf9 membrane polyspecificity reagent, FACS + sequencing; frameworks hold sequencing errors
# Method in brief: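 Sorting gates, low and high (top ~1%), were placed on anti-HA fluorescence to track expression and on streptavidin fluorescence to track reagent binding. A clone's polyreactivity label is taken from the gate it came out of. The reagent was 10% biotinylated, detergent-solubilized Sf9 membrane, applied for 1 hour at 4 °C to galactose-induced yeast display cells.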
row,Sequence,polyreactivity (PSR sort gate)
1,QVQLVESGGGLVQAGGSLRLSCAASGRTFAAYAMGWYIQSPGKERELVAAISSTSGNTYYADSVKGRFTISRDNAKNTVYLQMNSLKPEDTAVYYCNAQRRFNANYWYDYWGQGTQVTVSS,high polyreactivity
2,QVQLVESGGGLVQAGGSLRLSCAASGRTFAAYAMGWYRQAPGKEREFVADITYSGGSTTYADSVKGRFTISRDNAKNTVYLLMNSLNPEDTAVYYCNKLAYTPGWRGFVWYDYWGQGTQVSVSS,low polyreactivity
3,QVQLVESGGGLVQAGGSLRLSCAASGRTFAFNAMGRYRQAPGKEMELVAAISRSGGSTYYADSVKGRFTISRDNAKNTVYLQMNSLKPEDTAVYYCNAYYNRYPGYDYWGQGTQVTVSS,high polyreactivity
4,QVQLVESGGGLVQAGGSLRLSCAASGRTFAFNAMGWYRQAPGKERELVATISWSGGSTYYADSVKGRFTISRDNAKNTVYLQMNSLKPEDTAVYYCAKVVRGSNDYDYWGQGTQVTVSS,high polyreactivity
5,QVQLVESGGGLVQAGGSLRLSCAASGRTFAFYAMGWYRQAPGKERELVASISSSGDRTYYADSVKGRFTISRVNAKNTVYLQMNSLKPEDTAVYYCAARWRYTYYYWGQGTQVTVSS,high polyreactivity
6,QVQLVESGGGLVQAGGSLRLSCAASGRTFAGNAMGWYRQAPGKEREFVASITASGVNTYYADSVKGRFTISRDNAKNTVYLQMNSLKPEDTAVYYCNKRNRWTPFYTYDYWGQGTQVTVSS,low polyreactivity
7,QVQLVESGGGLVQAGGSLRLSCAASGRTFAGYAMGWYRQAPGKERELVAAISGSGGRTYYADSVKGRFTISRDNAKNTVYLQMNSLKPEDTAVYYCAASQRVYIARSDYWGQGTQATVSS,high polyreactivity
8,QVQLVESGGGLVQAGGSLRLSCAASGRTFAGYAMGWYRQAPGKERELVAGIRRSGDSTYYADSVKGRFTISRDNAKNTVYLQMNSLKPEDTAVYYCAAAPISKYGPYRGTGYRMGYWGQGTQVTVSS,high polyreactivity
9,QVQLVESGGGLVQAGGSLRLSCAASGRTFAGYTMGWYRQAPGKERELVAAITKSGGSTYYADSVKGRFTISRDNEKNTVYLQMNSLKPEDTAVYYCAARYIPSRYGTGCGYYSWGQGTQVTVSS,high polyreactivity
10,QVQLVESGGGLVQAGGSLRLSCAASGRTFAHNAMGWYRQAPGKERELVAAITWSGGTTYYADSVKGRFTISRDNAKNTVYLHMNSLKPEDTAVYYCNTYSYQPDPKYDYWGQGTQVTVSS,low polyreactivity
11,QVQLVESGGGLVQAGGSLRLSCAASGRTFAHNAMGWYRQAPGKERELVAAITWSGGTTYYADSVKGRFTISRDNAKNTVYLQMNSLKPEDTAVYYCNTYSYQPDPKYDYWGQGTQVTVSS,low polyreactivity
12,QVQLVESGGGLVQAGGSLRLSCAASGRTFAIYAMGWYRQAPGKERELVAAIRKRGSITYYADSVKGRFTISRDNAKNTVYLQMNSLKPEDTAVYYCAVDYWGQGTQVTVSS,high polyreactivity
13,QVQLVESGGGLVQAGGSLRLSCAASGRTFAIYTRGWYRQAPGKERELVASITSSGASTYYADSVKGRFTISRDNAKNTVYLQMNSLKPEYTAVYYCAAGWYQGFDYWGQGTQVTVSS,high polyreactivity
14,QVQLVESGGGLVQAGGSLRLSCAASGRTFAKYAMGWYRQAPGKEREWVAAINSSGGSTYYADSVKGRFTISRDNAKNTVYLQMNSLKPEDTAVYYCAKEYYSYDVYLGVSYVGRYDYWGQGTQVTVSS,low polyreactivity
15,QVQLVESGGGLVQAGGSLRLSCAASGRTFANYAMGWYRQAPGKERELVAAISSGGNTYYADSVKGRFTISRDNAKNTVYLQMNSLKPEDTAVYYCNAPWYYRYQRNEYGYWGQGTQVTVSS,high polyreactivity
16,QVQLVESGGGLVQAGGSLRLSCAASGRTFAQNAMGWYRQAPGKERELVAAISSGGGRTYYADSVKGRFTISRDNAKNTVFLQMNSLKREDTAVYYCAAQGWLSYRYSPLKFGYWGQGTQVTVSS,high polyreactivity

row,Sequence,polyreactivity (PSR sort gate)
1,QVQLVESGGGLVQAGGSLRLSCAASGRTFAQYTMGWYRQAPGKERELVAGIDWSGGNTYYADSVKGRFTISRDNAKNTVYLQMNSLKPEDTAVYYCAAVPAFYNAWGEDYEYWGQGTQVTVSS,low polyreactivity
2,QVQLVESGGGLVQAGGSLRLSCAASGRTFARNAMGWYRPAPGKERELVAAIPRSGGSTYYADSVKGRFTISRDNAKNTVYLQMNSLKPEDTADYYCAAVGTGSSLRYDYWGQGTQVTVSS,high polyreactivity
3,QVQLVESGGGLVQAGGSLRLSCAASGRTFARNAMGWYRQAAGKERELVAAITSIGTRTYYADAVKGRFTISRDNAKNTVYLQMNSLKPEDTAVYYCNKKRTADYDYWGQGTQVSVSS,low polyreactivity
4,QVQLVESGGGLVQAGGSLRLSCAASGRTFARYAMGWYRQAPGKERELVAAISRGGTTNYADSVKGRFTISRDNAKNTVYLQMNSLKPEDTAVYYCNRDFHLIHLSSARLDYWGQGTQVTVSS,low polyreactivity
5,QVQLVESGGGLVQAGGSLRLSCAASGRTFARYAMGWYRQAPGKERELVAAITRRGGSTYYADSVKGRFTISRDNAQNTVYLQMNSLKPEDTAVYYCAVPWYTRESGAYDYWGQGTQVTVSS,high polyreactivity
6,QVQLVESGGGLVQAGGSLRLSCAASGRTFARYAMGWYRQAPGKERELVARISSGGSTYYADSVKGRFTISRDNAKNTVYLQMNSLKPEDTAVYYCAASGWRYRYDYWGQGTQVTVSS,high polyreactivity
7,QVQLVESGGGLVQAGGSLRLSCAASGRTFARYGMGWYRQAPGKERELVATINWRSAGSTYYADSVKGRFTISRDNAKNTVYLLMNSLKPEDTAVYYCNVDSGRSYRVARYDYWGQGTQVTVSS,low polyreactivity
8,QVQLVESGGGLVQAGGSLRLSCAASGRTFARYTMGWYRQAPGKERELVASITRGGSTYYADSVKGRFTISRDNAKNTVYLQMNSLKPEDTAVYYCAARFPQHNYWAMDYWGQGTQVTVSS,high polyreactivity
9,QVQLVESGGGLVQAGGSLRLSCAASGRTFASNAMGWYRQAPGKERELVAAISVTGGRTYYADSVKGRFTISRDNAKNTVYLQMNRLKPEDTAVYYCAKDLTLFSGPFPEFGYWGQGTQVTVSS,low polyreactivity
10,QVQLVESGGGLVQAGGSLRLSCAASGRTFASYAMGWYRQAPGKERELVASIRYSGGSTHYADSVKGRFTISRDNAKNTVYLQMNSLKPEDTAVNYCNARPKFRTYNYWGQGTQVTVSS,high polyreactivity
11,QVQLVESGGGLVQAGGSLRLSCAASGRTFASYAMGWYRQAPGKERELVAVISRGGSNTNYADSVKGRFTISRDNAKNTVYLQLNSLKPEDTAVYYCADLAFKRYNPGGYDYWGQGTQVTVSS,high polyreactivity
12,QVQLVESGGGLVQAGGSLRLSCAASGRTFASYDMGWYRQEPGKERELVAAISVSGDSTYYADSVKGRFTISRDNAKNTFYLQMNSLKPEDTAVYYCNAEAQDYDHDYWGQSTQVTVSS,low polyreactivity
13,QVQLVESGGGLVQAGGSLRLSCAASGRTFASYGMGWYRQAPGKHRELVASITRRGGSTYYADSVKGRFTISRDNAKNTVYLQMNSLKPEDTAVYYCAATRVRSASYSIEYDYWGQGTQVTVSS,high polyreactivity
14,QVQLVESGGGLVQAGGSLRLSCAASGRTFAVYAMGWYRPAPGKERELVAGITSGGSTNYADSVKGRFTISRDNAKNTVYLQMNSLKPEDTAVYYCAAENVYAGFGFVSIGDYWGQGTQVTVSS,low polyreactivity
15,QVQLVESGGGLVQAGGSLRLSCAASGRTFAVYAMGWYRQAPGKERELDAAITYGGGRTYYADSVKGRFTISRDNAKNTVYLQMYSLKPEDTAVYYCAADYYGTDYDYWGQGTQVTVSS,low polyreactivity
16,QVQLVESGGGLVQAGGSLRLSCAASGRTFAVYSMGWYRQATGKERELVAVISSGGGTDYADSVKGRFRISRDNAKNTVYLQMNSLNPEDTAVYYCAADSVTFLATQPGDYWGQGTQVTVSS,low polyreactivity
